Source: US20240285784A1, “PEPTIDIC CONJUGATES OF SN38 USEFUL IN THE TREATMENT OF CANCER” (FUNDACIÓ INSTITUT DE RECERCA BIOMÈDICA (IRB BARCELONA), priority 2020, published 2024)
Values after ≈ are worked out from the molar mass of the structure shown. Like-named read-outs stand apart in the source and are kept apart here. *1 amine or outer side, *2 acyl side, *3 side chain or, on linkers, in order; H or OH if unused. Where a SMILES comes first, the peptide text is derived from it. Bridges are numbered along the chain shown (N, C = ends). [ ]: non-standard residue; d: D form. The star is where a group is joined. X1 = CCc1c2c(nc3ccc(O)cc13)-c1cc3c(c(=O)n1C2)COC(=O)[C@@]3(CC)OC(=O)CCCCn1cc(CCCC(=O)NCCCOCCOCCOCCCN*)nn1; Suc = O=C(CCC(=O)[*:2])[*:1]; Dap = NC[C@H](N)C(=O)O

Legend:
[1] = Turbidimetric aqueous solubility; type: physicochemical; settings: for solubility at 2 hr: kinetic from dmso stock, 0.01 M phosphate buffered saline pH 7.4, 1% DMSO, 2 hr at 37° C., absorbance 620 nm
Method: Each test compound concentration was then further diluted 1 in 100 in buffer (0.01 M phosphate buffered saline pH 7.4) so that the final DMSO concentration was 1% and the final test compound concentrations were 1, 3, 10, 30 and 100 μM. The experiment was performed at 37° C. and each concentration was incubated in 7 replicate wells. The plates were incubated for 2 hr at 37° C. before the absorbance was measured at 620 nm.

athymic nude mice = assay: In vivo tolerability, repeated intravenous injections (mouse weight); settings: 30 mg/kg i.v., 9 doses (days 1, 3, 5, 8, 10, 12, 29, 31, 33), weight until day 40
Method: Upon the establishment of the MTD of SN38-linker A-MiniAp4 (Ia) at single i.v, we compared mean weight of mice treated with irinotecan at a clinically relevant multi-dose regimen, and SN38-linker A-MiniAp4 (Ia)at an equimolar dose. Briefly, mice were treated with either irinotecan 10 mg/kg (15 doses, on days 1-5, 8-12 and 29-33), by the intraperitoneal (i.p.) route, or with a SN38-linker A-MiniAp4 (Ia) 30 mg/kg (9 doses, on days 1, 3, 5, 8, 10, 12, 29, 31, 33), intravenously (i.v.). This regimen was considered the maximum feasible number of i.v. injections in mice. Control mice were treated with saline i.p. on days 1-5, 8-12 and 29-33.
Mouse weight was measured until day 40 and mean and SD values are represented for each group in FIG. 19. […] Weight of SN38-linker A-MiniAp4 (Ia) (Ia) treated mice was similar to that of mice treated with clinically relevant dosages of irinotecan.

[2] = Stability in human plasma at 37° C. in vitro; type: in vitro ADME
Method: (§1) To assess the stability of the SN38-linker A-MiniAp4 (Ia) (example 7) in human, mouse, dog and rat plasma at 37° C., the compound was prepared at 200 μM in plasma samples in triplicates at each timepoint (0 h, 1 h, 4 h, 8 h and 24 h) for each species. Once the incubation was finalised, plasma proteins were immediately precipitated by adding chilly methanol (ratio 4:1, methanol:plasma) and tubes were shacked for few seconds (vortex). Samples were centrifuged at 3,000 rpm for 30 minutes at 4° C., supernatants were collected, transferred to the injection plate and injected to LC-MS system.
(§2) Compound recovery was determined by comparing the analyte response in a biological sample that is spiked with the analyte and processed, with the response in a methanol sample that is spiked with the analyte and processed.
(§3) Plasma stability assay was performed using blank plasma from untreated volunteers/animals. K2-EDTA was used as anticoagulant. Human blank plasma used was obtained from Hospital Sant Pau, mouse blank plasma used was obtained from Janvier, dog blank plasma used was obtained from Isoquimen and rat blank plasma used were obtained from Draconis Pharma.
To assess the stability of the G2B-001 lineal (Ib) (example 16) in human plasma at 37° C., the compound was prepared at 200 µM in plasma samples in triplicates at each timepoint (0 h, 0.5 h, 1 h, 2 h, 4 h, 8 h and 24 h). Once the incubation was finalised, plasma proteins were immediately precipitated by adding chilly methanol (ratio 4:1, methanol:plasma) and tubes were shacked for few seconds (vortex). Samples were centrifuged at 3,000 rpm for 30 minutes at 4° C., supernatants were collected, transferred to the injection plate and injected to LC-MS system. Compound recovery was determined by comparing the analyte response in a biological sample that is spiked with the analyte and processed, with the response in a methanol sample that is spiked with the analyte and processed.
Plasma stability assay was performed using blank plasma from untreated volunteers. K2-EDTA was used as anticoagulant. Human blank plasma used was obtained from Hospital Sant Pau.

[3] = Stability in mouse plasma at 37° C. in vitro; type: in vitro ADME
Method: as §1, §2, §3

[4] = Stability in dog plasma at 37° C. in vitro; type: in vitro ADME
Method: as §1, §2, §3

[5] = Stability in rat plasma at 37° C. in vitro; type: in vitro ADME
Method: as §1, §2, §3

CCc1c2c(nc3ccc(O)cc13)-c1cc3c(c(=O)n1C2)COC(=O)[C@@]3(CC)OC(=O)CCCCn1cc(CCCC(=O)NCCCOCCOCCOCCCNC(=O)CCC(=O)N[C@H]2CNC(=O)C[C@@H](C(N)=O)NC(=O)[C@H](CC(C)C)NC(=O)[C@H](C)NC(=O)[C@H]([C@@H](C)O)NC(=O)[C@H](CCC(=O)O)NC(=O)[C@@H]3CCCN3C(=O)[C@H](C)NC(=O)[C@H](CCCCN)NC2=O)nn1 [SN38-linker A-MiniAp4 (Ia)] ({X1-Suc}-[Dap]KAPETALD-NH2; lactam 1-9)
solubility at 2 hr ([1]; 37 °C, pH 7.4, aqueous buffer, read-out: Turbidity aqueous solubility, Estimated precipitation range, Lower bond): 30 µM (≈ 54.8 µg/mL) | solubility at 2 hr ([1]; 37 °C, pH 7.4, aqueous buffer, read-out: Turbidity aqueous solubility, Estimated precipitation range, Upper bond): 100 µM (≈ 183 µg/mL) | solubility at 2 hr ([1]; aqueous buffer, read-out: Turbidity aqueous solubility, Estimated precipitation range, Calculated mid-range): 65 µM (≈ 119 µg/mL) | solubility problems in turbidimetric solubility test ([1]; up to 100 micromolar): No solubility problems | mouse weight versus controls (athymic nude mice): did not lose significant weight | half-life at 200 μM [2]: > 24 h | recovery at 24 h, 200 μM ([2]; 24 h, read-out: % Recovery after 24 h in human plasma): 65.1% | half-life at 200 μM [3]: 8 to 24 h | recovery at 24 h, 200 μM ([3]; 24 h, read-out: % Recovery after 24 h in mouse plasma): 57.1% | half-life at 200 μM [4]: 8 to 24 h | recovery at 24 h, 200 μM ([4]; 24 h, read-out: % Recovery after 24 h in dog plasma): 68.3% | half-life at 200 μM [5]: > 24 h | recovery at 24 h, 200 μM ([5]; 24 h, read-out: % Recovery after 24 h in rat plasma): 61.2%
